Entries after “also recorded” stand apart in the source; their conditions may differ.
Columns and labels:
L929 cells [1] = settings: cited from earlier work
LPS-induced shock = settings: cited from earlier work
L929 cells [2] = experiment: L929 cell killing (cytotoxic/cytolytic/tumoricidal) assay; assay type: cell-based, mouse
Procedure: L929 fibrosarcoma cells were obtained from the Rega Institute, Leuven, Belgium.
After 18 h of culture at 37° C., viability of the cell cultures was assessed by dye uptake analysis. […] The plates were read spectrophotometrically at 577 nm with a Titertek multiscan MCC340 ELISA Reader (Flow Laboratories, McLean, Va.).

[3] = test system: human interleukin-6 (IL6); experiment: IL6 production by hMVECb cells; assay type: cell-based; settings: 24 hours
Procedure: Subsequently, the IL6 concentration in the supernatant of the cells was assessed using a commercially available hIL6 ELISA kit (Medgenix, Belgium).

[4] = In vivo half life of wild type and tip-deleted TNF-α (serum concentration); settings: 1 μg/mouse i.p.
Procedure: An ELISA assay to measure the protein concentration of the wild type and tip-deleted or tip-mutated mouse TNF-α protein was developed. […] Subsequently, the plates were washed once with washing buffer (PBS, 0.05% Tween-20) and the remaining binding sites were blocked for at least one hour at 37° C. with 300 μl per well of PBS buffer supplemented with 1% BSA and 0.1% NaN3. Dilutions of sample or standard mTNF-α (0.01 to 10 ng/ml mTNF-α), made in 100 μl of PBS supplemented with 1% BSA, 1% rabbit serum, and 0.1% mertiolate are then added to each well and incubated for 2 hours at 37° C. […] Subsequently, the plates are washed four times with washing buffer wherafter 100 μl of straptavidin-horseradish peroxidase (Jackson Immunoresearch Labs), which has been diluted in sample diluent to a concentration of 100 ng/ml is added and incubated for 30 minutes at 37° C. […] The reaction is stopped by adding 100 μl per well of 2N H2SO4 wherafter the optical density is read at dual wavelength (450/595 nm).
Female 8 weeks old C57bL/6 mice (6 mice/group--Charles Rivers Deutshland) were injected intraperitoneally with 1 μg/mouse of either wild type mouse TNF-α or tip deleted TNF-α. Subsequently, the mice were bled 0.5, 5, 10, 15, 30, 60, 120, 180, or 240 minutes post-injection.

[5] = test system: 3LL-R Lewis lung carcinoma cells; experiment: Experimental metastasis inducing capacity on TNF resistant 3LL-R Lewis lung carcinoma cells; assay type: in vivo, mouse (C57bl/6); settings: 17 days
Procedure: At this time, all mice were killed and the lung weight as well as the amount of cancer cell nodules in the lung was assessed.

[6] = test system: human interleukin 8 (IL8); experiment: IL8 production by hMVECb cells; assay type: cell-based; settings: 24 hours
[7] = test system: Trypanosoma brucei rhodesiense; experiment: In vitro trypanocidal assay, T. brucei rhodesiense; assay type: cell-based; settings: 5 h; for mortality of trypanosomes: data not shown
Procedure: (§1) The Trypanosoma brucei brucei AnTat 1.1 (EATRO 1125) pleomorphic bloodstream form was kindly provided to us by Dr. N. Van Meirvenne of the Institute for Tropical Medecine, Antwerp, Belgium, and the Trypanosoma brucei rhodesiense Trp 11 pleomorphic bloodstream form was kindly provided to us by Dr. E. Bajyana Songa (Dept. Molecular Biology, Free University of Brussels, Belgium)
(§2) After 5 h of incubation, the number of live (=moving) parasites was assessed (counting chamber) and compared the control wells in which only incubation medium was added to the trypanosomes. […] All treatments were done in quadruplicate and all reported in vitro trypanolysis experiments were repeated at least 3 times.

[8] = test system: Trypanosoma brucei brucei; experiment: In vitro trypanocidal assay, T. brucei brucei; assay type: cell-based; settings: for mortality of trypanosomes: data not shown
Procedure: as §1, §2

C57BL/6 mice = experiment: TNF-α-induced lethal shock in mice; assay type: in vivo, mouse (C57BL/6)
Procedure: Female 10-weeks old C57BL/6 mice (Iffa Credo, France) were used in all in vivo TNF-induced lethal shock experiments.
Intravenous (i.v.) injection of 10-week-old C57BL/6 mice with 10 μg/mouse of mTNF-α causes death within 48 hours.
Ten weeks old C57BL/6 mice (5 to 6/group) were injected with different doses of wild type or mutant mouse TNF-α and the postinjection survival time was then assessed.

[9] = mTNF-α 1000 pg/ml, +p55 (5 μg/ml)
[10] = mTNF-α 10000 pg/ml, +p55 (5 μg/ml)

uromodulin: glycoprotein which binds TNF-α via its lectin-like domain
effect on TNF-α cytotoxic/tumoricidal activity (L929 cells [1]): does not block the tumoricidal activity of TNF-α
effect on LPS-/TNF-/endotoxin-induced shock in vivo (LPS-induced shock): able to potently inhibit the TNF-induced shock in vivo; also recorded: able to potently inhibit the LPS-induced shock in vivo

mTNF-α: Purified recombinant mouse tumor necrosis factor-alpha, produced in E. coli
specific activity (L929 cells [2]; bioactivity on L929 cells, purified wild type): ~2×10^8 U/mg
Tumoricidal activity (% lysis) (L929 cells [2]; mTNF-α 100 pg/ml, +p55 (5 μg/ml)): 0 ± 1%
Tumoricidal activity (% lysis) (L929 cells [2]; mTNF-α 100 pg/ml, -p55): 40 ± 2%
Tumoricidal activity (% lysis) (L929 cells [2]; [9]): 0 ± 1%
Tumoricidal activity (% lysis) (L929 cells [2]; mTNF-α 1000 pg/ml, -p55): 92 ± 3%
Tumoricidal activity (% lysis) (L929 cells [2]; [10]): 93 ± 3%
Tumoricidal activity (% lysis) (L929 cells [2]; mTNF-α 10000 pg/ml, -p55): 98 ± 4%
specific activity (L929 cells [2]; purified recombinant, produced in E. coli, assay not stated): 10^8 units/mg
IL6 concentration ([3]; 333 pg/ml, experiment 1): 1520 pg/mL
IL6 concentration ([3]; 333 pg/ml, experiment 2): 1900 pg/mL
IL6 concentration ([3]; 1000 pg/ml, experiment 1): 1250 pg/mL
IL6 concentration ([3]; 1000 pg/ml, experiment 2): 1400 pg/mL
IL6 concentration ([3]; 1666 pg/ml, experiment 1): 1220 pg/mL
IL6 concentration ([3]; 1666 pg/ml, experiment 2): 1300 pg/mL
concentration TNF-α ([4]; Experiment 1, 0.5 minutes): 1000 ng/mL
concentration TNF-α ([4]; Experiment 1, 5 minutes): 880 ng/mL
concentration TNF-α ([4]; Experiment 1, 10 minutes): 650 ng/mL
concentration TNF-α ([4]; Experiment 1, 15 minutes): 500 ng/mL
concentration TNF-α ([4]; Experiment 1, 30 minutes): 420 ng/mL
concentration TNF-α ([4]; Experiment 1, 60 minutes): 320 ng/mL
concentration TNF-α ([4]; Experiment 1, 120 minutes): 20 ng/mL
concentration TNF-α ([4]; Experiment 1, 180 minutes): 10 ng/mL
concentration TNF-α ([4]; Experiment 1, 240 minutes): 0 ng/mL
concentration TNF-α ([4]; Experiment 2, 0.5 minutes): 1000 ng/mL
concentration TNF-α ([4]; Experiment 2, 15 minutes): 550 ng/mL
concentration TNF-α ([4]; Experiment 2, 30 minutes): 500 ng/mL
concentration TNF-α ([4]; Experiment 2, 60 minutes): 480 ng/mL
concentration TNF-α ([4]; Experiment 2, 120 minutes): 20 ng/mL
concentration TNF-α ([4]; Experiment 2, 180 minutes): 0 ng/mL
concentration TNF-α ([4]; Experiment 2, 240 minutes): 0 ng/mL
general condition of mice [5]: all suffered from severe respiration problems
mean lung weight ([5]; 5 μg/mouse i.p. 5 hours prior to 3LL-R cells): 1088.2 ± 315.7
IL8 concentration ([6]; 333 pg/ml, experiment 1): 1050 pg/mL
IL8 concentration ([6]; 333 pg/ml, experiment 2): 1700 pg/mL
IL8 concentration ([6]; 1000 pg/ml, experiment 1): 1680 pg/mL
IL8 concentration ([6]; 1000 pg/ml, experiment 2): 1800 pg/mL
IL8 concentration ([6]; 1666 pg/ml, experiment 1): 1200 pg/mL
IL8 concentration ([6]; 1666 pg/ml, experiment 2): 1650 pg/mL
concentration at which 50% of the animals (parasites) are killed [7]: 5000 pg/mL
concentration at which 50% of the animals (parasites) are killed ([8]; T. brucei brucei, 5 h): 5000 pg/mL
trypanocidal specific activity ([8]; in vitro trypanocidal assay): 2×10^5 U/mg of protein
Trypanocidal activity (% lysis) ([8]; mTNF-α 100 pg/ml, +p55 (5 μg/ml soluble p55 hTNF-α receptor)): 25 ± 3%
Trypanocidal activity (% lysis) ([8]; mTNF-α 100 pg/ml, -p55): 30 ± 2%
Trypanocidal activity (% lysis) [8, 9]: 41 ± 4%
Trypanocidal activity (% lysis) ([8]; mTNF-α 1000 pg/ml, -p55): 45 ± 5%
Trypanocidal activity (% lysis) [8, 10]: 56 ± 3%
Trypanocidal activity (% lysis) ([8]; mTNF-α 10000 pg/ml, -p55): 60 ± 4%
lethal dose (C57BL/6 mice; C57BL/6 mice): 10 μg/mouse
time to death (C57BL/6 mice; i.v. 10 μg/mouse): ≤ 48 h

B1: mouse interleukin 1β: mouse interleukin 1β (protein, UniProt P10749 118-269, looked up)
Interleukin-1 beta: VPIRQLHYRLRDEQQKSLVLSDPYELKALHLNGQNINQQVIFSMSFVQGEPSNDKIPVALGLKGKNLYLSCVMKDGTPTLQLESVDPKQYPKKKMEKRFVFNKIEVKSKVEFESAEFPNWYISTSQAEHKPVFLGNNSGQDIIDFTMESVSS
mortality of trypanosomes [7]: do not cause any mortality
mortality of trypanosomes ([8]; T. brucei brucei, 5 h): do not cause any mortality

B2: hTNF-β: Human recombinant TNF-β (lymphotoxin) (protein, UniProt P01374 35-205, looked up)
Lymphotoxin-alpha: LPGVGLTPSAAQTARQHPKMHLAHSTLKPAAHLIGDPSKQNSLLWRANTDRAFLQDGFSLSNNSLLVPTSGIYFVYSQVVFSGKAYSPKATSSPLYLAHEVQLFSSQYPFHVPLLSSQKMVYPGLQEPWLHSMYHGAAFQLTQGDQLSTHTDGIPHLVLSPSTVFFGAFAL
mortality of trypanosomes [7]: do not cause any mortality
mortality of trypanosomes ([8]; T. brucei brucei, 5 h): do not cause any mortality

B3: mouse interleukin 1α: mouse interleukin 1α (protein, UniProt P01582 115-270, looked up)
Interleukin-1 alpha: SAPYTYQSDLRYKLMKLVRQKFVMNDSLNQTIYQDVDKHYLSTTWLNDLQQEVKFDMYAYSSGGDDSKYPVTLKISDSQLFVSAQGEDQPVLLKELPETPKLITGSETDLIFFWKSINSKNYFTSAAYPELFIATKEQSRVHLARGLPSMTDFQIS
mortality of trypanosomes [7]: do not cause any mortality
mortality of trypanosomes ([8]; T. brucei brucei, 5 h): do not cause any mortality
